Here are results for 125 sequences from the supplement of paper PMC9112550, “Optimization of the antimicrobial peptide Bac7 by deep mutational scanning” (BMC Biology, 2022).

For the data set, the system named is Escherichia coli TOP10. The experiment in a line: shrunken log2 fold change of peptide-encoding DNA abundance (4.5 h post-induction vs induction); higher = less antimicrobial activity (less host growth inhibition). Particulars: time post-induction: 4.5 h; library: site-saturation at positions 5, 18, 19, 20.
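Further: peptides expressed intracellularly from a pBAD plasmid library in pooled LB shake-flask culture, induced with 0.3% L-arabinose, DNA abundance read by NGS, three biological replicates, DESeq2 with apeglm shrinkage.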

In the case of RRIRMRPPRLPRPRPRPEPWPRP, the “shrunken log2 fold change” value came to 1.3.

Turning to RRIRKRPPRLPRPRPRPKWNPRP, the “shrunken log2 fold change” value was found to be 0.392.

Turning to RRIRSRPPRLPRPRPRPKTSPRP, the “shrunken log2 fold change” value came out at 0.187.

Regarding RRIRNRPPRLPRPRPRPWGLPRP, the “shrunken log2 fold change” value is -0.123.

Turning to RRIRFRPPRLPRPRPRPSWPPRP, the “shrunken log2 fold change” value is -0.0802.

For the sequence RRIRIRPPRLPRPRPRPGWVPRP, the “shrunken log2 fold change” value stood at 0.28.

On to RRIRFRPPRLPRPRPRPMCKPRP, for which the “shrunken log2 fold change” value was -0.169.

With RRIRPRPPRLPRPRPRPKYMPRP, the “shrunken log2 fold change” value was determined as 1.72.

Take RRIRSRPPRLPRPRPRPDCPPRP: the “shrunken log2 fold change” value is 0.0922.

In the case of RRIRWRPPRLPRPRPRPMYNPRP, the “shrunken log2 fold change” value is -0.387.

RRIRWRPPRLPRPRPRPSIHPRP: the “shrunken log2 fold change” value is -0.319.

Turning to RRIRHRPPRLPRPRPRPFTKPRP, the “shrunken log2 fold change” value was determined as 0.009.

With RRIRRRPPRLPRPRPRPEQTPRP, the “shrunken log2 fold change” value is -0.01.

As for RRIRLRPPRLPRPRPRPSMSPRP, the “shrunken log2 fold change” value was determined as 0.221.

As for RRIRGRPPRLPRPRPRPGRAPRP, the “shrunken log2 fold change” value came to 0.84.

As to RRIRARPPRLPRPRPRPTACPRP, the “shrunken log2 fold change” value came to 0.405.

As for RRIRGRPPRLPRPRPRPREQPRP, the “shrunken log2 fold change” value was 0.857.

Take RRIRVRPPRLPRPRPRPNESPRP: the “shrunken log2 fold change” value is -0.374.

In the case of RRIRYRPPRLPRPRPRPCTMPRP, the “shrunken log2 fold change” value was -0.347.

Regarding RRIRTRPPRLPRPRPRPNDHPRP, the “shrunken log2 fold change” value was -0.0838.

As to RRIRKRPPRLPRPRPRPWHYPRP, the “shrunken log2 fold change” value is 0.0725.

For RRIRTRPPRLPRPRPRPESWPRP, the “shrunken log2 fold change” value was determined as 0.809.

Take RRIRPRPPRLPRPRPRPCHVPRP: the “shrunken log2 fold change” value is -0.0695.

As to RRIRCRPPRLPRPRPRPKALPRP, the “shrunken log2 fold change” value worked out at 0.0255.

Regarding RRIRRRPPRLPRPRPRPCSNPRP, the “shrunken log2 fold change” value is -0.166.

On to RRIRCRPPRLPRPRPRPVHSPRP, for which the “shrunken log2 fold change” value was -0.107.

As for RRIRPRPPRLPRPRPRPNNLPRP, the “shrunken log2 fold change” value is -0.181.

RRIRYRPPRLPRPRPRPRVKPRP: the “shrunken log2 fold change” value is 0.0364.

Consider RRIRFRPPRLPRPRPRPPTQPRP, for which the “shrunken log2 fold change” value turned out to be 0.327.

For RRIRTRPPRLPRPRPRPMFAPRP, the “shrunken log2 fold change” value was -0.0818.

Take RRIRHRPPRLPRPRPRPEYVPRP: the “shrunken log2 fold change” value was -0.0134.

RRIRLRPPRLPRPRPRPATMPRP: the “shrunken log2 fold change” value is -0.366.

Consider RRIRDRPPRLPRPRPRPPPHPRP, for which the “shrunken log2 fold change” value turned out to be 0.623.

Turning to RRIRCRPPRLPRPRPRPVQEPRP, the “shrunken log2 fold change” value is 0.286.

As for RRIRGRPPRLPRPRPRPTTMPRP, the “shrunken log2 fold change” value is 0.451.

Consider RRIRRRPPRLPRPRPRPYQVPRP, for which the “shrunken log2 fold change” value was -0.0648.

As to RRIRYRPPRLPRPRPRPMCCPRP, the “shrunken log2 fold change” value was -3.16.

As to RRIRNRPPRLPRPRPRPKRFPRP, the “shrunken log2 fold change” value was determined as 0.0343.

Consider RRIRTRPPRLPRPRPRPILNPRP, for which the “shrunken log2 fold change” value was -0.403.

For the sequence RRIRHRPPRLPRPRPRPETWPRP, the “shrunken log2 fold change” value was -0.238.

Regarding RRIRYRPPRLPRPRPRPGQIPRP, the “shrunken log2 fold change” value was -0.0348.

Turning to RRIRERPPRLPRPRPRPYCIPRP, the “shrunken log2 fold change” value was -0.205.

Take RRIRARPPRLPRPRPRPCCSPRP: the “shrunken log2 fold change” value is 0.0121.

As for RRIRNRPPRLPRPRPRPIVKPRP, the “shrunken log2 fold change” value was -0.339.

For the sequence RRIRGRPPRLPRPRPRPEGPPRP, the “shrunken log2 fold change” value is -0.0198.

Take RRIRWRPPRLPRPRPRPCCKPRP: the “shrunken log2 fold change” value amounted to 0.0725.

Consider RRIRFRPPRLPRPRPRPAMAPRP, for which the “shrunken log2 fold change” value came out at 0.0902.

As for RRIRKRPPRLPRPRPRPMVCPRP, the “shrunken log2 fold change” value is 0.00938.

In the case of RRIRVRPPRLPRPRPRPECRPRP, the “shrunken log2 fold change” value was determined as 0.238.

Consider RRIRYRPPRLPRPRPRPHRAPRP, for which the “shrunken log2 fold change” value is -0.213.

Consider RRIRYRPPRLPRPRPRPGEPPRP, for which the “shrunken log2 fold change” value is -0.0235.

With RRIRLRPPRLPRPRPRPNNPPRP, the “shrunken log2 fold change” value was -0.157.

RRIRKRPPRLPRPRPRPRHTPRP: the “shrunken log2 fold change” value came to 0.328.

Take RRIRSRPPRLPRPRPRPCFLPRP: the “shrunken log2 fold change” value was -0.642.

Take RRIRGRPPRLPRPRPRPAWSPRP: the “shrunken log2 fold change” value is 0.929.

Turning to RRIRVRPPRLPRPRPRPHDFPRP, the “shrunken log2 fold change” value is -0.00674.

On to RRIRTRPPRLPRPRPRPNHWPRP, for which the “shrunken log2 fold change” value is 0.0032.

As for RRIRPRPPRLPRPRPRPNPHPRP, the “shrunken log2 fold change” value was 0.0866.

Regarding RRIRIRPPRLPRPRPRPPRRPRP, the “shrunken log2 fold change” value was 0.396.

Take RRIRKRPPRLPRPRPRPTSTPRP: the “shrunken log2 fold change” value came out at 0.489.

In the case of RRIRDRPPRLPRPRPRPCGCPRP, the “shrunken log2 fold change” value came out at 0.317.

Consider RRIRQRPPRLPRPRPRPFGRPRP, for which the “shrunken log2 fold change” value stood at 0.037.

With RRIRARPPRLPRPRPRPAREPRP, the “shrunken log2 fold change” value was found to be 0.835.

Regarding RRIRVRPPRLPRPRPRPPEHPRP, the “shrunken log2 fold change” value is -0.219.

Turning to RRIRIRPPRLPRPRPRPVFFPRP, the “shrunken log2 fold change” value was -0.107.

Take RRIRGRPPRLPRPRPRPFQTPRP: the “shrunken log2 fold change” value came to 0.013.

For the sequence RRIRHRPPRLPRPRPRPRKQPRP, the “shrunken log2 fold change” value came to 0.11.

With RRIRRRPPRLPRPRPRPWIKPRP, the “shrunken log2 fold change” value is 0.0892.

As for RRIRKRPPRLPRPRPRPQSVPRP, the “shrunken log2 fold change” value was determined as 0.139.

Consider RRIRHRPPRLPRPRPRPEWYPRP, for which the “shrunken log2 fold change” value was determined as 0.0294.

Consider RRIRARPPRLPRPRPRPGHKPRP, for which the “shrunken log2 fold change” value is -0.197.

RRIRKRPPRLPRPRPRPQRGPRP: the “shrunken log2 fold change” value was -0.0338.

RRIRTRPPRLPRPRPRPFEWPRP: the “shrunken log2 fold change” value was -0.0651.

As for RRIRDRPPRLPRPRPRPYNVPRP, the “shrunken log2 fold change” value is -0.0265.

In the case of RRIRKRPPRLPRPRPRPSMFPRP, the “shrunken log2 fold change” value is -0.15.

As for RRIRNRPPRLPRPRPRPCPPPRP, the “shrunken log2 fold change” value is -0.328.

On to RRIRWRPPRLPRPRPRPRLRPRP, for which the “shrunken log2 fold change” value was determined as 0.461.

As to RRIRGRPPRLPRPRPRPKWRPRP, the “shrunken log2 fold change” value is 0.795.

Take RRIRRRPPRLPRPRPRPYATPRP: the “shrunken log2 fold change” value was 0.418.

For the sequence RRIRDRPPRLPRPRPRPPPCPRP, the “shrunken log2 fold change” value was determined as 0.443.

Regarding RRIRLRPPRLPRPRPRPDQRPRP, the “shrunken log2 fold change” value was 0.274.

As for RRIRHRPPRLPRPRPRPAFHPRP, the “shrunken log2 fold change” value was -0.152.

Regarding RRIRARPPRLPRPRPRPARSPRP, the “shrunken log2 fold change” value came out at 0.31.

In the case of RRIRPRPPRLPRPRPRPRHEPRP, the “shrunken log2 fold change” value is 0.0886.

With RRIRTRPPRLPRPRPRPDKFPRP, the “shrunken log2 fold change” value was 0.116.

In the case of RRIRNRPPRLPRPRPRPSQVPRP, the “shrunken log2 fold change” value is -0.0797.

For RRIRSRPPRLPRPRPRPYHRPRP, the “shrunken log2 fold change” value is -0.507.

For RRIRTRPPRLPRPRPRPMIAPRP, the “shrunken log2 fold change” value was found to be 0.000989.

RRIRSRPPRLPRPRPRPWGIPRP: the “shrunken log2 fold change” value is -0.118.

Consider RRIRVRPPRLPRPRPRPFVVPRP, for which the “shrunken log2 fold change” value is -0.107.

With RRIRQRPPRLPRPRPRPKKIPRP, the “shrunken log2 fold change” value is -0.0759.

For the sequence RRIRLRPPRLPRPRPRPRTNPRP, the “shrunken log2 fold change” value was 0.113.

Regarding RRIRIRPPRLPRPRPRPCPKPRP, the “shrunken log2 fold change” value was -0.564.

As for RRIRKRPPRLPRPRPRPNLVPRP, the “shrunken log2 fold change” value was -0.0428.

With RRIRTRPPRLPRPRPRPTWDPRP, the “shrunken log2 fold change” value stood at 0.478.

For the sequence RRIRVRPPRLPRPRPRPDAIPRP, the “shrunken log2 fold change” value came out at 0.286.

As for RRIRIRPPRLPRPRPRPYKKPRP, the “shrunken log2 fold change” value is -0.0756.

Take RRIRRRPPRLPRPRPRPQQEPRP: the “shrunken log2 fold change” value was -0.0236.

As to RRIRNRPPRLPRPRPRPPEPPRP, the “shrunken log2 fold change” value is 0.184.

As to RRIRHRPPRLPRPRPRPCLLPRP, the “shrunken log2 fold change” value is -0.342.

Take RRIRMRPPRLPRPRPRPRPFPRP: the “shrunken log2 fold change” value amounted to 0.647.

RRIRLRPPRLPRPRPRPIISPRP: the “shrunken log2 fold change” value was -0.513.

Regarding RRIRQRPPRLPRPRPRPEQQPRP, the “shrunken log2 fold change” value is -0.0316.

Take RRIRERPPRLPRPRPRPQWYPRP: the “shrunken log2 fold change” value was -0.56.

RRIRGRPPRLPRPRPRPCFIPRP: the “shrunken log2 fold change” value was found to be 0.0559.

Take RRIRPRPPRLPRPRPRPICRPRP: the “shrunken log2 fold change” value is -0.276.

As to RRIRARPPRLPRPRPRPFPPPRP, the “shrunken log2 fold change” value turned out to be 0.332.

In the case of RRIRGRPPRLPRPRPRPIDTPRP, the “shrunken log2 fold change” value was found to be 0.306.

With RRIRWRPPRLPRPRPRPMAFPRP, the “shrunken log2 fold change” value is -0.0177.

As for RRIRPRPPRLPRPRPRPGERPRP, the “shrunken log2 fold change” value came to 0.1.

Take RRIRQRPPRLPRPRPRPLIAPRP: the “shrunken log2 fold change” value is -0.124.

As for RRIRKRPPRLPRPRPRPQLEPRP, the “shrunken log2 fold change” value came out at 0.327.

For the sequence RRIRLRPPRLPRPRPRPECKPRP, the “shrunken log2 fold change” value stood at 0.0726.

For the sequence RRIRRRPPRLPRPRPRPKTHPRP, the “shrunken log2 fold change” value was 0.126.

For RRIRMRPPRLPRPRPRPTWYPRP, the “shrunken log2 fold change” value is -0.112.

Take RRIRVRPPRLPRPRPRPFPMPRP: the “shrunken log2 fold change” value is -0.35.

Take RRIRMRPPRLPRPRPRPGTKPRP: the “shrunken log2 fold change” value was 0.844.

Turning to RRIRFRPPRLPRPRPRPNSIPRP, the “shrunken log2 fold change” value was -0.216.

Consider RRIRLRPPRLPRPRPRPEDKPRP, for which the “shrunken log2 fold change” value was -0.0384.

Consider RRIRCRPPRLPRPRPRPNEVPRP, for which the “shrunken log2 fold change” value is -0.153.

On to RRIRYRPPRLPRPRPRPKGDPRP, for which the “shrunken log2 fold change” value is -0.0902.

With RRIRARPPRLPRPRPRPTFGPRP, the “shrunken log2 fold change” value was found to be 0.416.

As to RRIRDRPPRLPRPRPRPDADPRP, the “shrunken log2 fold change” value turned out to be 0.0193.

Regarding RRIRIRPPRLPRPRPRPIKTPRP, the “shrunken log2 fold change” value was -0.0553.

Consider RRIRWRPPRLPRPRPRPNAAPRP, for which the “shrunken log2 fold change” value worked out at 0.81.
